The record followed here is patent US20230279126A1 (published 2023).

Experiment [1] addresses T1, extracellular domain of human IL12RB1 (hIL12Rb1 ECD) (human, UniProt P42701 24-545).
T1 construct: The immunogen was a fusion of the ECD with the human IgG1 hinge and Fc; also called IL12Rβ1; CD212
Nature of the experiment: periplasmic extract ELISA (PE-ELISA) of phage clones, colorimetric. Summed up:
(§1)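 VHH domains came from camels immunized in sequence with human and mouse receptor extracellular domain–human IgG1 hinge–Fc fusion proteins. Blood RNA was transcribed, and the approximately 400 bp VHH fragment was cloned in frame with a his-tag into a phagemid in E. coli. The phage library went through multiple rounds of biopanning on the human or mouse extracellular domain. Individual clones were tested by periplasmic extract ELISA in 96-well plates, with selective binding read colorimetrically.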

For experiment [2], the target named is T2, extracellular domain of mouse IL12RB1 (mIL12Rb1 ECD) (mouse, UniProt Q60837 20-565).
T2 construct: The immunogen was a fusion of the ECD with the human IgG1 hinge and Fc; also called mIL12Rb1 ECD antigen
T2 sequence: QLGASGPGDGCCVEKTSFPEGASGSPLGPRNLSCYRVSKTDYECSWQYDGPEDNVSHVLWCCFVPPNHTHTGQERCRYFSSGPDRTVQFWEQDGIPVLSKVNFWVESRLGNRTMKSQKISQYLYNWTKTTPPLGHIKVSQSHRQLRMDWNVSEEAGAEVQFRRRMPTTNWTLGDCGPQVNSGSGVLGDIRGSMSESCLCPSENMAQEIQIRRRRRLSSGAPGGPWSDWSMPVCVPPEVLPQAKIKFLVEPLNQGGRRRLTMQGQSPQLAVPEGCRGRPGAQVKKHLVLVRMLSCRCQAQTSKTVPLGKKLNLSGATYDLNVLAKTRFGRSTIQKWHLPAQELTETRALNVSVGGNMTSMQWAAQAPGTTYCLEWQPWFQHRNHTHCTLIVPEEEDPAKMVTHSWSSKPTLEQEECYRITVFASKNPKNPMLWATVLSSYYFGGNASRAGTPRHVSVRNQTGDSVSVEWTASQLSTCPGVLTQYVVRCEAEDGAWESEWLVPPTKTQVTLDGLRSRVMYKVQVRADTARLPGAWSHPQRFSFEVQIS
The description is as above. Summed up:
as §1

B1: hIL12Rb1_VHH10 (VHH)
VHH: QVQLQESGGGSVQAGGSLRLSCAVSGYDYCGYDVRWYRQAPGKEREFVSGIDSDGSTSYADSVKGRFTISQDNAENTSYLHMFSLKPEDTAMYYCKTESPAGESAWCRNFRGMDYWGKGTQVTVSS
notes: Phagemid clone with his-tag, periplasmic extract
For the molecule B1, the binding result in experiment [1] is on record as “binds”.

B2: hIL12Rb1_VHH11 (VHH)
VHH: QVQLQESGGGSVQAGGSLRLSCAVSGYDYCGYDVRWYRQAPGKEREFVSGIDSDGSTSYADSVKGRFTISQDNAENTSYLHMFSLKPEDTAMYYCKTESPAGESAWCRNFRGMDYWGKGTQVTVSS
notes: as for B1
On to B2, for which the binding result in experiment [1] was “binds”.

B3: hIL12Rb1_VHH14 (VHH)
VHH: QVQLQESGGGSVQAGGSLRLSCAVSGYDYCGYDVRWYRRAPGKEREFVSGIDSDGSTSYADSVKGRFTISQDNAENTSYLHMFSLKPEDTAMYYCKTESPAGESAWCRNFRGMDYWGKGTQVTVSS
notes: as for B1
On to B3, for which the binding result in experiment [1] is given as “binds”.

B4: hIL12Rb1_VHH15 (VHH)
VHH: QVQLQESGGGSVQAGGSLRLSCAVSGYDYCGYDVRWYRQAPGKEREFVSGINSDGSTSYADSVKGRFTISQDNAENTSYLHMFSLKPEDTAMYYCKTESPAGESAWCRNFRGMDYWGKGTQVTVSS
notes: as for B1
As to B4, the binding result in experiment [1] is recorded as “binds”.

B5: hIL12Rb1_VHH19 (VHH)
VHH: QVQLQESGGGSVQAGGSLRLSCAVSGYDYCGYDVRWYRQAPGKEREFVSGINSDGSTSYADSVKGRFTISQDNAENTSYLHMFSLKPEDTAMYYCKTEGPAGESAWCRNFRGMDYWGKGTQVTVSS
notes: as for B1
With B5, the binding result in experiment [1] is “binds”.

B6: hIL12Rb1_VHH7 (VHH)
VHH: QVQLQESGGGSVQAGGSLRLSCAVSGYDYCGYDVRWYRRAPGKEREFVSGIDSDGSTSYADSVKGRFTISQDNAENTSYLHMFSLKPEDTAMYYCKTESPAGESAWCRNFRGMDYWGKGTQVTVSS
notes: as for B1
B6: the binding result in experiment [1] was “binds”.

B7: hIL12Rb1_VHH17 (VHH)
VHH: QVQLQESGGGSVQAGGFLRLSCVASGYGYCGYDMSWYRQVPGKEREFVALITSDRSVSYEDSVKGRFSISRDNAKNTAYLEMNRLTPDDTAIYYCKTSTAARENNWCRSRYRIASWGQGTQVTVSS
notes: as for B1
On to B7, for which, in experiment [1], the binding result is on record as “binds”.

B8: hIL12Rb1_VHH4 (VHH)
VHH: QVQLQESGGGSVQAGGSLRLSCVASGYGYCGYDMSWYRQTPGKEREFVALITSDRIASYEDSVKGRFIISRDNAKNTGYLDMTRVTPDDTAIYYCKTSAAARENSWCRSRYRVASWGQGTQVTVSS
notes: as for B1
On to B8, for which the binding result in experiment [1] is “binds”.

B9: hIL12Rb1_VHH5 (VHH)
VHH: QVQLQESGGGSVQAGGFLRLSCVASGYGYCGYDMSWYRQVPGKEREFVALITSDRSVSYEDSVKGRFSISRDNAKNTAYLEMNRLTPDDTAVYYCKTSTAARENNWCRSRYRIAYWGQGTQVTVSS
notes: as for B1
With B9, in experiment [1], the binding result is “binds”.

B10: hIL12Rb1_VHH13 (VHH)
VHH: QVQLQESGGGSVQAGGFLRLSCVASGYGYCGYDMSWYRQAPGKEREFVALITSERVISYEDSVKGRFSISRDNAENTGYLEMNRLTPDDTAIYYCKTSAAARESSWCRSRYRVASWGQGTQVTVSS
notes: as for B1
For the molecule B10, the binding result in experiment [1] is on record as “binds”.

B11: hIL12Rb1_VHH22 (VHH)
VHH: QVQLQESGGGSVQAGGSLRLSCTASGYTYSSAFMAWFRQAPGKEREGVAAIYTRDGGTVYADSVKGRFTISQDNAKNTLYLQMNSLKAEDTAMYYCAAKIPQPGRASLLDSQTYDYWGQGTQVTVSS
notes: as for B1
As to B11, in experiment [1], the binding result is given as “binds”.

B12: mIL12Rb1_VHH1 (VHH)
VHH: QVQLQESGGGSVQAGGSLRLSCTASGYTYSSAFMAWFRQAPGKEREGVAAIYTRDGGTVYADSVKGRFTISQDNAKNTLYLQMNSLKAEDTAMYYCAAKIPQPGRASLLDSQTYDYWGQGTQVTVSS
notes: as for B1
Consider B12, for which the binding result in experiment [2] is given as “binds”.

B13: hIL12Rb1_VHH20 (VHH)
VHH: QVQLQESGGGSVQAGGSLRLSCTASGYTYSSAFMAWFRQAPGKEREGVAAIYTRDGSPVYADSLKGRFTISQDNAKNTLHLQMNSLKPEDTAMYYCAAKIPEPGRISLLDSQTYDYWGHGTQVTVSS
notes: as for B1
With B13, the binding result in experiment [1] is recorded as “binds”.

B14: hIL12Rb1_VHH21 (VHH)
VHH: QVQLQESGGGSVQAGGSLRLSCTASGYTYSSAFMAWFRQAPGKEREGVAAMYTRDGGTVYADSVKGRFTISQDNAKNTLYLQMNSLKTEDTAMYYCAAKIPQPGRASLLDSQTYDYWGQGTQVTVSS
notes: as for B1
On to B14, for which the binding result in experiment [1] is on record as “binds”.

B15: mIL12Rb1_VHH6 (VHH)
VHH: QVQLQESGGGSVQAGGSLRLSCTASGYTYSSAFMAWFRQAPGKEREGVAAIYTRDGSPVYADSLKGRFTISQDNAKNTLHLQMNSLKPEDTAMYYCAAKIPEPGRISLLDSQTYDYWGHGTQVTVSS
notes: as for B1
Turning to B15, the binding result in experiment [2] is recorded as “binds”.

B16: mIL12Rb1_VHH22 (VHH)
VHH: QVQLQESGGGSVQAGGSLRLSCTASGYTYSSAFMAWFRQAPGKEREGVAAIYTRDGGTVYADSVKGRFTISQDNAKNILYLQMNSLKAEDTAMYYCAAKIPQPGRASLLDSQTYDYWGQGTQVTVSS
notes: as for B1
As for B16, the binding result in experiment [2] is “binds”.

B17: mIL12Rb1_VHH18 (VHH)
VHH: QVQLQESGGGSVQAGGSLRLSCTASGYTYSSAFMAWFRQAPGKEREGVAAMYTRDGGTVYADSVKGRFTISQDNAKNTLYLQMNSLKTEDTAMYYCAAKIPQPGRASLLDSQTYDYWGQGTQVTVSS
notes: as for B1
With B17, the binding result in experiment [2] was “binds”.

B18: hIL12Rb1_VHH2 (VHH)
VHH: QVQLQESGGGSVQAGGSLRLSCTASGYTYSSAFMAWFRQAPGKEREGVAAIYTRDGGTVYADSVKGRFTISQDNAKNILYLQMNSLKAEDTAMYYCAAKIPQPGRASLLDSQTYDYWGQGTQVTVSS
notes: as for B1
Take B18: the binding result in experiment [1] is “binds”.

B19: mIL12Rb1_VHH17 (VHH)
VHH: QVQLQESGGGSVQAGGSLRLSCTASGYTYSSAFMAWFRQAPGKEREGVAAMYTRDGGTVYADSVKGRFTISQDNAKNTLYLQIHTLKAEDTAMYYCAAKIPQPGRASLLDSQTYDYWGQGTQVTVSS
notes: as for B1
For B19, the binding result in experiment [2] is given as “binds”.

B20: hIL12Rb1_VHH16 (VHH)
VHH: QVQLQESGGGSVQAGGSLRLSCTASGYTYSSAFMAWFRQAPGKEREGVAAMYTRDGGTVYADSVKGRFTISQDNAKNTLYLQIHTLKAEDTAMYYCAAKIPQPGRASLLDSQTYDYWGQGTQVTVSS
notes: as for B1
As for B20, the binding result in experiment [1] is “binds”.

B21: hIL12Rb1_VHH12 (VHH)
VHH: QVQLQESGGGSVQAGGSLRLSCTASGYTYSSAFMAWFRQAPGKEREGVAAIYTRDGGTVYADSVKGRFTISQDNAKNTLYLQMNSLKPEDTAMYYCAAKMPQPGRASLLDSQTYDYWGQGTQVTVSS
notes: as for B1
In the case of B21, in experiment [1], the binding result is “binds”.

B22: hIL12Rb1_VHH3 (VHH)
VHH: QVQLQESGGGSVQAGGSLRLSCVASGYSYCGYDMMWYRQAPGKEREFVALITSDYSIRYEDSVEGRFSISRDNAKNTGYLLMSNLTPADTAIYYCKTSTAARESSWCRSRYRVASWGQGTQVTVSS
notes: as for B1
Regarding B22, the binding result in experiment [1] is “binds”.

B23: hIL12Rb1_VHH8 (VHH)
VHH: QVQLQESGGGSVQAGGSLRLSCVASGYSYCGYDMMWYRQAPGKEREFVALITSDYSIRYEDSVEGRFSISRDNAKNTGYLLMSNLTPADTAIYYCKTSTAARESSWCRSRYRVASWGQGTQVTVSS
notes: as for B1
As for B23, the binding result in experiment [1] was “binds”.

B24: hIL12Rb1_VHH9 (VHH)
VHH: QVQLQESGGGSVQAGGSLRLSCVASGYSYCGYDMMWYRQAPGKEREFVALITSDYSIRYEDSVEGRFSISRDNAKNTGYLLMSNLTPADTAIYYCKTSTAARESGWCRSRYRVASWGQGTQVTVSS
notes: as for B1
For the molecule B24, the binding result in experiment [1] was “binds”.

B25: hIL12Rb1_VHH6 (VHH)
VHH: QVQLQESGGGSVQAGGSLRLSCAASRYTYTNNFMAWFRQAPGKEREGVAAIYTGDGYAYYFYSVKGRFTISQDNDENMLYLQMNSLKPEDTAMYYCAAMERRIGTRRMTENAEYKYWGQGTQVTVSS
notes: as for B1
Turning to B25, the binding result in experiment [1] was “binds”.

B26: hIL12Rb1_VHH18 (VHH)
VHH: QVQLQESGGGSVQAGGSLRLSCAASRYTYTNNFMAWFRQAPGKEREGVAAIYTGDGYAYYFDSVKGRFTISQDNDKNMLYLQMNSLKPEDTAMYYCAAMERRSGRRRMTENAEYKYWGQGTQVTVSS
notes: as for B1
In the case of B26, the binding result in experiment [1] is “binds”.

B27: hIL12Rb1_VHH1 (VHH)
VHH: QVQLQESGGGSVQAGGSLRLSCVASGYGYCGYDMSWYRQAPGKEREFVALITSDRSISYEDSVKARFIISRDNAANTGYLDMTRLTPDDTAIYYCKTSAAARESSWCRSRYRVASWGQGTQVTVSS
notes: as for B1
On to B27, for which the binding result in experiment [1] is “binds”.
